Measurements as given in patent US20220204643A1 (published 2022).

Experiments:
Experiment in all cases: protein array
[1] = molecular target: T1, homeobox and leucine zipper encoding (human, UniProt Q8IX15 25-550)
T1 construct: on protein array; also called HOMEZ
T1 sequence: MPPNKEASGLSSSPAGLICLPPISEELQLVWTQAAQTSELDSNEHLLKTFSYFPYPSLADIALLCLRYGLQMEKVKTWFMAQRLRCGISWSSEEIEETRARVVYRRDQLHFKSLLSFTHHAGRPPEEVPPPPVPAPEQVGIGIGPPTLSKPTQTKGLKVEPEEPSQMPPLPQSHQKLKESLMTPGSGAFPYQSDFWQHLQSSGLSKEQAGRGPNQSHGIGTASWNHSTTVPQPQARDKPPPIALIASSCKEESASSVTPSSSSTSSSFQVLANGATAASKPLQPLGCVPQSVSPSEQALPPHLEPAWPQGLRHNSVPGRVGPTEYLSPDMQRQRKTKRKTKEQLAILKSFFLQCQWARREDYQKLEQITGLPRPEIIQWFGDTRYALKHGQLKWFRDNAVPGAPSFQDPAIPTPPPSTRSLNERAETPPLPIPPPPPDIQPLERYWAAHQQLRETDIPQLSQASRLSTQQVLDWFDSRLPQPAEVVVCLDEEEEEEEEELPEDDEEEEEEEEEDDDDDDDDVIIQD

[2] = molecular target: T2, BAR/IMD domain containing adaptor protein 2, transcript variant 3 (human, UniProt Q9UQB8 1-511)
T2 construct: on protein array; also called BAIAP2
T2 sequence: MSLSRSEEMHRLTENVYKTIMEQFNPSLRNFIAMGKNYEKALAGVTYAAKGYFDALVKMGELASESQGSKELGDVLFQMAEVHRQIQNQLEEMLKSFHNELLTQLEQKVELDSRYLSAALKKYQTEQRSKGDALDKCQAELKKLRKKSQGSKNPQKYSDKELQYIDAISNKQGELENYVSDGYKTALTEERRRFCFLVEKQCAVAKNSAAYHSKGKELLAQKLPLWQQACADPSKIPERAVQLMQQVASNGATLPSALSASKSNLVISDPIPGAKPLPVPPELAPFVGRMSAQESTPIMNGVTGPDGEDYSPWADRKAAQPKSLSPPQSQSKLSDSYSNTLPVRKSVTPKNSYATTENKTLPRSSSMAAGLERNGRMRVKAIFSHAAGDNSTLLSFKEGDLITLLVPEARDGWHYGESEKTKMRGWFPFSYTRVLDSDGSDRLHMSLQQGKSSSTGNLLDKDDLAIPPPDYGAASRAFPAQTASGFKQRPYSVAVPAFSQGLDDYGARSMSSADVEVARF

extended synaptotagmin 2 = molecular target: T3, extended synaptotagmin 2 (human, UniProt A0FGR8 564-921)
T3 construct: on protein array; also called ESYT2_frag
T3 sequence: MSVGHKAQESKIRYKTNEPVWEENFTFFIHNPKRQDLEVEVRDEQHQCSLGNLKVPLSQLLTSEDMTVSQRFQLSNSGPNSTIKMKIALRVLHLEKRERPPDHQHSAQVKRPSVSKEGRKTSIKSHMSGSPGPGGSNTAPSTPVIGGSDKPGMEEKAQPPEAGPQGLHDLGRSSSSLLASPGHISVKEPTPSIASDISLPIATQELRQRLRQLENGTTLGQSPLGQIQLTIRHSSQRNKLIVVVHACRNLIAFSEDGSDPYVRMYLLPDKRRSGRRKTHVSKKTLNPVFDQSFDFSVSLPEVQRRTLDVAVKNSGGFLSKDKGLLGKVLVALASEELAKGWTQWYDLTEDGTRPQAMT

[3] = molecular target: T4, Atpase secretory pathway ca2+ transporting 1 (human, UniProt P98194 1-909)
T4 construct: on protein array; also called ATP2C1
T4 sequence: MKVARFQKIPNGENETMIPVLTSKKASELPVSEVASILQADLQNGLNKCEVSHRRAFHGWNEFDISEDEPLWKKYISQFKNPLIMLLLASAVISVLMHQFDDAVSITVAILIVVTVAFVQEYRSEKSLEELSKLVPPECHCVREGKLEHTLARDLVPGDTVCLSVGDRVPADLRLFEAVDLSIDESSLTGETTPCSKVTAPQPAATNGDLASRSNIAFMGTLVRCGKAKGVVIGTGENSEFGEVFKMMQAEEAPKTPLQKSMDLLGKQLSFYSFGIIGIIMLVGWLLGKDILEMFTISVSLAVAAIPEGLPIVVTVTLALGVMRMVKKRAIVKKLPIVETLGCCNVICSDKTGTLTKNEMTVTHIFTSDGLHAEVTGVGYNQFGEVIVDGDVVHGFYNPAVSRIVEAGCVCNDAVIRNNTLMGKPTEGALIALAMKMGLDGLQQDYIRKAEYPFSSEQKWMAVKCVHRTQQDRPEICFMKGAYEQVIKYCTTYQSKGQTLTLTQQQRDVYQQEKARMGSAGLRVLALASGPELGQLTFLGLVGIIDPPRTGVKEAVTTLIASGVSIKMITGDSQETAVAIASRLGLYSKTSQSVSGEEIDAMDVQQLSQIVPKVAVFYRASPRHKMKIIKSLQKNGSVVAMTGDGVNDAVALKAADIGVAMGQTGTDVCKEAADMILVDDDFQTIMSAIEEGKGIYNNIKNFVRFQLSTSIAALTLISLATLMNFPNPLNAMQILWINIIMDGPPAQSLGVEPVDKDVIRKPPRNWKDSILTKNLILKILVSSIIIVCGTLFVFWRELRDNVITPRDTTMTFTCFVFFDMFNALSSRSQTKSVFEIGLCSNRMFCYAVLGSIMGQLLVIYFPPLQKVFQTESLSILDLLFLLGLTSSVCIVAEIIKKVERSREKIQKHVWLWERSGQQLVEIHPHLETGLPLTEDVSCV

[4] = molecular target: T5, teashirt zinc finger homeobox 2, transcript variant 1 (human, UniProt Q9NRE2 1-1034)
T5 construct: on protein array; also called TSHZ2
T5 sequence: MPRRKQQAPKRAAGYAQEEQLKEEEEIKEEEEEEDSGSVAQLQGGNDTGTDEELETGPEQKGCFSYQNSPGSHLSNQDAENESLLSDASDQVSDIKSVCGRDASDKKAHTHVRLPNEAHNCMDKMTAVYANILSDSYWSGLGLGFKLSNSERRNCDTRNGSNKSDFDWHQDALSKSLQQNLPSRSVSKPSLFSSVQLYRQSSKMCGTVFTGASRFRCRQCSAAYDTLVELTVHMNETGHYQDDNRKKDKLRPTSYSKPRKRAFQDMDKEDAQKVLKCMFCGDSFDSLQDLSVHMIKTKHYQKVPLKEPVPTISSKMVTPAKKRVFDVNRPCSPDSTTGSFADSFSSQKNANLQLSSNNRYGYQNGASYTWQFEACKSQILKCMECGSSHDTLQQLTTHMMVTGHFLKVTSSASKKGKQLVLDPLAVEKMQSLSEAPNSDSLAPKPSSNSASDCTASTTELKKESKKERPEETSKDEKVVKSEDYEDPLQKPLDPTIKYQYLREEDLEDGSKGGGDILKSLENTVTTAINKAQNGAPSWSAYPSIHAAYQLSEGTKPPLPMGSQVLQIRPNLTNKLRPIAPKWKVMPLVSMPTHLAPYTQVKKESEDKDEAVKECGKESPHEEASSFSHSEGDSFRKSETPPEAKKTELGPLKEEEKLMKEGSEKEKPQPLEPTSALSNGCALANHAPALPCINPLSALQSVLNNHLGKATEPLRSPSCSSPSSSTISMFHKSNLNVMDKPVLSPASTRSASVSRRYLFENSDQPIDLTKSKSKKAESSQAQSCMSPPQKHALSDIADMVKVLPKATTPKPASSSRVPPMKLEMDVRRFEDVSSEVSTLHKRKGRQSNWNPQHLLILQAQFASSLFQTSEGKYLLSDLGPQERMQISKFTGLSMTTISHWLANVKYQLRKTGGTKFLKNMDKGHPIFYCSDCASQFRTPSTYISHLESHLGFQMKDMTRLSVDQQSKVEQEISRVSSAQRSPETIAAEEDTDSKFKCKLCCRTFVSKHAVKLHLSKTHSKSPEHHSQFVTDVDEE

[5] = molecular target: T6, growth factor receptor bound protein 2, transcript variant 1 (human, UniProt P62993 1-217)
T6 construct: on protein array; also called GRB2

[6] = molecular target: T7, leucine rich repeat containing 28, transcript variant 1 (human, UniProt Q86X40 1-367)
T7 construct: on protein array; also called LRRC28
T7 sequence (Q86X40 whole entry, change not shown): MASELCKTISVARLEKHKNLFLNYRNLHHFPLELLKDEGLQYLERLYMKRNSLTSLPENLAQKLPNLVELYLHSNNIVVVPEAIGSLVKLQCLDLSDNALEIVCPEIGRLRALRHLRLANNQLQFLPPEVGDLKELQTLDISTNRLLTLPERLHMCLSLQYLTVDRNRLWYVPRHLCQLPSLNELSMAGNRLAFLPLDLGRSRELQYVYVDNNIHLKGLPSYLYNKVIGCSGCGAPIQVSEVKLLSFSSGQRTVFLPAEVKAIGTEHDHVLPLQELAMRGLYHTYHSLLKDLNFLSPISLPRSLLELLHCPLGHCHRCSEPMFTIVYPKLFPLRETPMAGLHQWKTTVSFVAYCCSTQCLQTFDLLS

B1: TCOL1006 (antibody, V domains shown)
VH: EVQLVESGGGLVQPGGSLRLSCAASGFPPRSFAMSWVRQAPGKGLEWVSSISGLGNSIYYAESVKGRFITSRDNSKSTVFLLMNSLRAEDTAVYYCAKSAFGGVPDGFDIWGQGTMVTVSS
VL: QSVVTQPPSASGPPGQTVTISCSGGRSNVASHAVHWYQHLPGTAPKLLIYNDHQRPSGVPDRFSGSKSGPSASLAISGLRSEDEADYYCATWDDSLGGRVVFGGGTKLTVLG
notes: VH/VL only
B1: binds [1]; binds [2].

B2: TCOL1004 (antibody, V domains shown)
VH: QVQLQESGPGLVKPSQTLSLTCIVSGGSISGDKNFWSWVRQHPEKGLEWLGYISYNGNTYYNPSLISRIIISLDTPKNLFSLRLSSVTVADTAIYYCAREVDIRGDSDAFDIWGRGTVVTVSS
VL: EIVMTQSPATLSVSPGERATLSCRASQSVSTNLAWYQQRPGQAPRLFIFGASTRATGIPARFSGSGSGTEFTLTISSPQPEDSAVYYCQQYTTRPLTFGGGTKVEIKR
notes: VH/VL only
B2: binds (extended synaptotagmin 2).

B3: TESO1006 (antibody, V domains shown)
VH: QLHLQESGPGLVKPSETLSLTCTVSGGSVSSSSYYWGWVRQPPGKGLEWIGHVYYSGRTYYNPSLKSRATISLDTSKNQFSLKLSSLTATDTAVYYCATIVAAYSYGFEFDPWGQGILVIVSS
VL: QSVLTQPPSVSAAPGQKVTISCSGGSSNIGNNYVSWYQQLPGTAPKLIIYDNDKRPAGIPDRFSGSKSGSSATLGITGLQNGDEAEYYCGTWDSSLGGGVFGGGTKVTVLG
notes: VH/VL only
B3: binds [3]; binds [4].

B4: TCOL1009 (antibody, V domains shown)
VH: PVQLVQSGAEVKKPGASVKVSCKASGDTFPNYVISWVRQAPGQGLEWVGCINTNNGKTNYVQKLQGRVILTTDTSTNTANMELRSLRFDDTAVYYCARERGQVRSYGMDVWGQGTAVTVSS
VL: PYELTQPPSVSVSPGQTANITCSGDKLGDICVCWYQQKPGQSPVLVIYQHNKRPSGIPERFSGSNSGNTATLTISATQATDEAIYYCQSWDSSSVLFGGGTKLTVLG
notes: VH/VL only
B4: binds [5].

B5: TESO1003 (antibody, V domains shown)
VH: QVQLVESGGGVVQPGRSLRLSCAASGFTFSNYDMHWVRQAPGKGLEWVTVVSYDGTNKYYAESVQGRFTISRDNSKNTLYLQMNSLRTEDTAVYYCAKEGGWGNTVTTSYYYYGMDVWGQGTTVTVSS
VL: QIVLTQSPATLSLSPGERATLSCRASQSVSNYLAWYQQKPGQAPRLLIYDASNRATGIPARFSGSGSGTDFTLTISSLEPEDFAVYYCQQRSNWPPYTFGQGTKLDIKR
notes: VH/VL only
B5: binds [6].
